Assay results reported in the supplement of paper PMC9112550, “Optimization of the antimicrobial peptide Bac7 by deep mutational scanning” (BMC Biology, 2022).

tested on: Escherichia coli TOP10; experiment: shrunken log2 fold change of peptide-encoding DNA abundance (4.5 h post-induction vs induction); higher = less antimicrobial activity (less host growth inhibition); details: time post-induction: 4.5 h; library: site-saturation at positions 5, 18, 19, 20
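Also: peptides expressed intracellularly from a pBAD plasmid library in pooled LB shake-flask culture, induced with 0.3% L-arabinose, DNA abundance read by NGS, three biological replicates, DESeq2 with apeglm shrinkage.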

Sequence	shrunken log2 fold change
RRIRVRPPRLPRPRPRPLLYPRP	-0.259
RRIRARPPRLPRPRPRPVCGPRP	0.653
RRIRCRPPRLPRPRPRPLKQPRP	-0.151
RRIRVRPPRLPRPRPRPYVEPRP	-0.132
RRIRSRPPRLPRPRPRPLARPRP	0.0314
RRIRMRPPRLPRPRPRPCKQPRP	0.0203
RRIRTRPPRLPRPRPRPQKSPRP	-0.0823
RRIRERPPRLPRPRPRPPTTPRP	0.322
RRIRARPPRLPRPRPRPQRNPRP	-0.0146
RRIRTRPPRLPRPRPRPFETPRP	-0.117
RRIRARPPRLPRPRPRPLGQPRP	0.432
RRIRQRPPRLPRPRPRPTIMPRP	-0.127
RRIRVRPPRLPRPRPRPVLLPRP	-0.35
RRIRGRPPRLPRPRPRPNEGPRP	0.0414
RRIRRRPPRLPRPRPRPMIAPRP	0.121
RRIRHRPPRLPRPRPRPMLIPRP	-0.824
RRIRKRPPRLPRPRPRPVCKPRP	0.0228
RRIRWRPPRLPRPRPRPCWNPRP	0.11
RRIRMRPPRLPRPRPRPHPMPRP	2.74
RRIRQRPPRLPRPRPRPGKVPRP	-0.0155
RRIRIRPPRLPRPRPRPGIMPRP	-0.137
RRIRQRPPRLPRPRPRPFYHPRP	-0.368
RRIRGRPPRLPRPRPRPRKEPRP	0.363
RRIRTRPPRLPRPRPRPVPVPRP	0.0547
RRIRIRPPRLPRPRPRPIQEPRP	0.0527

Sequence	shrunken log2 fold change
RRIRDRPPRLPRPRPRPLRLPRP	0.0919
RRIRRRPPRLPRPRPRPYLCPRP	-0.404
RRIRHRPPRLPRPRPRPTGPPRP	0.149
RRIRERPPRLPRPRPRPCTLPRP	-0.407
RRIRCRPPRLPRPRPRPNQMPRP	-0.447
RRIRVRPPRLPRPRPRPKAFPRP	0.00341
RRIRYRPPRLPRPRPRPYMHPRP	0.0498
RRIRPRPPRLPRPRPRPVRPPRP	0.854
RRIRSRPPRLPRPRPRPEPRPRP	0.586
RRIRRRPPRLPRPRPRPDAHPRP	-0.00208
RRIRHRPPRLPRPRPRPIWLPRP	-0.00879
RRIRPRPPRLPRPRPRPYEWPRP	-0.874
RRIRPRPPRLPRPRPRPSFGPRP	-0.156
RRIRPRPPRLPRPRPRPFKHPRP	0.0339
RRIRVRPPRLPRPRPRPVAEPRP	0.104
RRIRPRPPRLPRPRPRPSIRPRP	-0.306
RRIRFRPPRLPRPRPRPFRAPRP	0.0466
RRIRIRPPRLPRPRPRPRQQPRP	0.0393
RRIRIRPPRLPRPRPRPWDGPRP	-0.094
RRIRFRPPRLPRPRPRPQVCPRP	-0.00807
RRIRSRPPRLPRPRPRPRQTPRP	0.0651
RRIRERPPRLPRPRPRPWNNPRP	-0.653
RRIRRRPPRLPRPRPRPNWQPRP	0.00842
RRIRNRPPRLPRPRPRPGSVPRP	-0.0436
RRIRFRPPRLPRPRPRPMACPRP	-0.00146

Sequence	shrunken log2 fold change
RRIRFRPPRLPRPRPRPCAEPRP	0.111
RRIRKRPPRLPRPRPRPMCVPRP	0.208
RRIRNRPPRLPRPRPRPDWAPRP	-0.0406
RRIRCRPPRLPRPRPRPWCAPRP	-0.0685
RRIRCRPPRLPRPRPRPVQYPRP	-0.203
RRIRDRPPRLPRPRPRPRFMPRP	-0.0192
RRIRMRPPRLPRPRPRPDQYPRP	-0.418
RRIRARPPRLPRPRPRPKHNPRP	0.114
RRIRFRPPRLPRPRPRPGENPRP	0.995
RRIRKRPPRLPRPRPRPIIWPRP	0.0809
RRIRIRPPRLPRPRPRPYLTPRP	-1.45
RRIRRRPPRLPRPRPRPEINPRP	-0.0385
RRIRWRPPRLPRPRPRPDEEPRP	0.215
RRIRERPPRLPRPRPRPPVIPRP	-0.257
RRIRMRPPRLPRPRPRPCPIPRP	-0.404
RRIRVRPPRLPRPRPRPVRHPRP	0.0933
RRIRFRPPRLPRPRPRPSRIPRP	-0.119
RRIRLRPPRLPRPRPRPMRRPRP	0.412
RRIRVRPPRLPRPRPRPWFPPRP	-0.641
RRIRLRPPRLPRPRPRPLGSPRP	-0.00618
RRIRWRPPRLPRPRPRPFCEPRP	0.376
RRIRDRPPRLPRPRPRPRPSPRP	0.329
RRIRWRPPRLPRPRPRPEIPPRP	-0.142
RRIRMRPPRLPRPRPRPHPCPRP	0.046
RRIRWRPPRLPRPRPRPMDLPRP	-0.214
